Data taken from the DeepSol protein solubility set.

Assay: soluble on expression in E. coli; label from the status in PepcDB or PDB records

Row | Sequence | soluble on expression in E. coli
1 | MKTLIARHKAGEHIGICSVCSAHPLVIEAALAFDRNSTRKVLIEATSNQVNQFGGYTGMTPADFREFVFTIADKVGFARERIILGGDHLGPNCWQQENADAAMEKSVELVKAYVRAGFSKIHLDASMSCAGDTIPLAPETVAERAAVLCFAAESVATDCQREQLSYVIGTEVPVPGGEASAIQSVHITHVEDAANTLRTHQKAFIARGLTEALTRVIAIVVQPGVEFDHSNIIHYQPQEAQALAQWIENTRMVYEAHSTDYQTRTAYWELVRDHFAILKVGPALTFALREAIFALAQIEQELIAPENRSGCLAVIEEVMLDEPQYWKKYYRTGFNDSLLDIRYSLSDRIRYYWPHSRIKNSVETMMVNLQGVDIPLGMISQYLPKQFERIQSGELSAMPHQLIMNKIYDVLRAYRYGCAE | not soluble
2 | MKTLILFSTRDGQTREIASYLASELKELGIQADVANVHRIEEPQWENYDRVVIGASIRYGHYHSAFQEFVKKHATRLNSMPSAFYSVNLVARKPEKRTPQTNSYARKFLMNSQWRPDRCAVIAGALRYPRYRWYDRFMIKLIMKMSGGETDTRKEVVYTDWEQVANFAREIAHLTDKPTLK | not soluble
3 | MKTLLPTSTAGSLPKPSWLAQPEKLWSPWKLQDEELIEGKRDALRLSLNDQQQAGIDIVSDGEQTRQHFVTTFIEHLSGVDFEKRETVRIRNRYDASVPTVVGAVSREKPVFVEDAKFLRQQTRQPIKWALPGPMTMIDTLYDSHYKSREKLAWEFAKILNQEARELEAAGVDIIQFDEPAFNVFFDEVNDWGVATLEKAIEGLKCETAVHICYGYGIKANTDWKKTLGSEWRQYEEAFPKLQKSNIDLISLECHNSRVPMDLIELIRGKKVMVGAIDVATSAIETPEEVADTLRKALRFVDADKLYPCTNCGMAPLSRQVARSKLNALGAGAEIIRRELSVAAALEHHHHHH | not soluble
4 | MKTPPINQKSLRETESWKLLESSIIYYEGNPIGTVAAQDPELAALNYDQCFLRDFVPSAFVFLMDGQTDIVRNFLIETLTLQSHEKEMDCFQPGAGLMPASFKVESDGSKEYLVADFGEKAIARVPPVDSCMWWILLLRAYEKATGDLTLAREPKFQAGIKLILDLCLAHRFSMYPTMLVPDGAFMIDRRMGVYEHPLEIQVLFYAALRAARELLLPDGDGEQYLNKVHGRLGALQYHIRNYYWVDLKRLREIYRYKGNEFGKEIANKFNIFSQSIPDWVIEWLPEKGGYLAGNLGPGRMDFRFFALGNLMAILAGLASEEESQRIMNLFAHRWEDLIGYMPVKICYPALQGLEWQIVTGCDPKNIPWSYHNGGNWPVLLWLFTAAALKTGKVELAHEAIAIAEGRLSNDKFPEYYDGNNGRLIGKEARIYQTWSIAGLLVAKQFLANPDHVEFISFPDTFIGPGCSLLEHHHHHH | not soluble
5 | MKTPRLLQYLAYPQKITGPIIEAELRDVAIGELCEIRRGWHQKQVVARAQVVGLQRERTVLSLIGNAQGLSRDVVLYPTGRALSAWVGYSVLGAVLDPTGKIVERFTPEVAPISEERVIDVAPPSYASRVGVREPLITGVRAIDGLLTCGVGQRMGIFASAGCGKTMLMHMLIEQTEADVFVIGLIGERGREVTEFVDMLRASHKKEKCVLVFATSDFPSVDRCNAAQLATTVAEYFRDQGKRVVLFIDSMTRYARALRDVALASGERPARRGYPASVFDNLPRLLERPGATSEGSITAFYTVLLESEEEADPMADEIRSILDGHLYLSRKLAGQGHYPAIDVLKSVSRVFGQVTTPTHAEQASAVRKLMTRLEELQLFIDLGEYRPGENIDNDRAMQMRDSLKAWLCQPVAQYSSFDDTLSGMNAFADQN | not soluble
6 | MKTRHYSLLIFLAGSAFFPEISAQLANCQNLGTPINSTDCLCPGFVDGRLCENIKCQRWAVPDKNRCACAPGWYDRYCGLRGCRPPNEEQMDLEKRSFIIVFNTKTTMKMQLDSLKNNFKEMISKVSKNSKGVVNNWIENYIVYGFVESQSHTKIQKLFTENPDDVISFFNNMTLFDGDDTQPVLTAIQNAQQTYPKMQAHALVLVFTDSPASDATAWSHRFTDKNAEQSVLQISLIWRSKYSFFLSLPARTNFLSNGVDVYRRLSLTNHGDTFFIKDSNDLSNALLNVIGVQYFPENVQIGYGKTTDEQLQTYVDNDGDLVYILLTIRSSLQTTVPSISEATIVAEGDSYRLYSPASNIGDTVTIHCQNGTTYNYRMFIQSKNTLLFNYNDDMHIDVGNGMAVIGAKSIFLGTKNSANRDHNAHDLSGNANELTTNVSKNNTDTCSKKNLDSINDPRLQEPRQFIFILEQHSGNEQVYKTLAREINDILELVNSSTTSEYKKEFTLIAHDSAESHVLFSSYNPKIFAEKFSKLVNSLELTDNLDNTMGLLSIIHAQKMNILPTALVYYFTNQAVKNAQNLTRNWDLVKRDIEINFLTIADGVTTEIFALPKQLELVQKMTNGRLIPLGKTENSIFPIFKDMMTVTTLTTDNEQYNCHDTALEIDGYFEDGASVSISNYVTYKNPNFMSIRIDSKLFASGKWKLSALSTTGGCQITVRQKTSVGLVLGFTAATNDDNASTQIISQRSSSDSQPIFTTLKTTNHIVPTDLEIQIVNRQRYDQPVSYVKLGNAQRDTNSCSYDFISDSVVVPKSTLTMWIVSATDNAGKLILHRIFYYYLPRILSEFAVVLQGFMEIFVKLCSCSPPTLLQCLQYRPLQSQHK | not soluble
7 | MKTVDSELFDSGPFKKNFAFGNADHSTASPFEISTTPIEVNESRAHKTIEISNRARLESQNDGCLSPSSLKSVLDEIQTEPRCKSPQHIDLHTFRDAVDVNYQRMAITGEELSGVPLEDLKTASGHLIEALHLRSKYMERIGNQFPSTTRNFLSGHYPANLPKHRVKNTETTVQTSFNPPDPPKDHWGKNDPLPKYEKIYHLRRNRGVTEICNDDGSIDQQFKNVNVTKEEFLNDTEKLTAMIVDGPLKSFCFRRLSYLENKFQLHVLLNELRELHEQKGVSHRDFYNIRKVDTHIHAASSMNQKHLLRFIKKKIKTEADTVVLNNNGTKVTMKEVFKKMGIDAYDLSVDMLDVHADRNTFHRFDKFNTKYNPVGESTLREIFIKTDNYVGGKYFADLLKEVLSDLEDSKYQHAEPRLSIYGRSKNEWDNLAKWALTHDVWSPNARWLVQIPRLYDVYRAKNMVKNFDDMLDNLFTPLFEVTNDPSSHPELHLFLQQISGIDSVDDESKHEFVNFDRSTPCPPEYTDLENPPYNYYLFYMYRNICALNAFRRARGLNTFALRPHCGEAGHVSHLLTGYLTSESIAHGILLRKVPVLQYLYYLTQIGIAMSPLSNNSLFISYQRNPLPEYLQKGLNVSLSTDDPLQFHYTKEALMEEFSIAAQVWKLSSCDMCELARNSVMQSGFEDKVKIHWLGPNYKEEGVLGNDIHRTNVPDIRVSFRHEALVDELYNLFRVQNTLKQ | not soluble
8 | MKTWPAPTAPTPVRATVTVPGSKSQTNRALVLAALAAAQGRGASTISGALRSRDTELMLDALQTLGLRVDGVGSELTVSGRIEPGPGARVDCGLAGTVLRFVPPLAALGSVPVTFDGDQQARGRPIAPLLDALRELGVAVDGTGLPFRVRGNGSLAGGTVAIDASASSQFVSGLLLSAASFTDGLTVQHTGSSLPSAPHIAMTAAMLRQAGVDIDDSTPNRWQVRPGPVAARRWDIEPDLTNAVAFLSAAVVSGGTVRITGWPRVSVQPADHILAILRQLNAVVIHADSSLEVRGPTGYDGFDVDLRAVGELTPSVAALAALASPGSVSRLSGIAHLRGHETDRLAALSTEINRLGGTCRETPDGLVITATPLRPGIWRAYADHRMAMAGAIIGLRVAGVEVDDIAATTKTLPEFPRLWAEMVGPGQGWGYPQPRSGQRARRATGQGSGGKLAAALEHHHHH | soluble
9 | MKVALYAGTYVKDKDGAVRSIYQLVSSMIKNGHQVVVWTPDFTPEANASVPVNLTPSVPIPLYPDYKLGFYNAVTERQLDEFAPDIVHISTPDIVGRKFLHYAKRKGLPVGSAYHTDFPSYLSYYRLGFAEPAVWRFLRKFYNACDVTLAPNESVRERLTGKGIERVELWSRGIDKELFDPSRRSAKLRRAWDAEGRTVIIYAGRFVLYKDIEVVMSLYQRFADEGLGDRVRFVMIGSGPEEAQMRARMPEAVFTGYLTGTTLPEAYASGDLFLFPSTTEAFCNVTLEALATGLPAVVSDVGGCQELVERSGGGFVAKAGDVGDFYACCTKLMQDGELFRSMRERGLAFAKDKSWAAVNGKLIDRYLELIAAKARRLEHHHHHH | not soluble
10 | MKVASGSTATAAAGPSCALKAGKTASGAGEVVRCLSEQSVAISRCAGGAGARLPALLDEQQVNVLLYDMNGCYSRLKELVPTLPQNRKVSKVEILQHVIDYIRDLQLELNSESEVGTPGGRGLPVRAPLSTLNGEISALTAEAACVPADDRILCRLEHHHHHH | soluble
11 | MKVDLNADAGESYGAFAYGHDREIFPLVSSANLACGFHGGSPGRILEAVRLAKAHGVAVGAHPGFPDLVGFGRREMALSPEEVYADVLYQIGALSAFLKAEGLPLHHVKPHGALYLKACRDRETARAIALAVKAFDPGLPLVVLPGTVYEEEARKAGLRVVLEAFPERAYLRSGQLAPRSMPGSWITDPEEAARRALRMVLEGKVEALDGGEVAVRADTLCIHGDNPNAPEVARAVREALEQAGVEVRAF | soluble
12 | MKVGIIGASGYTGSELLRILANHPEAEVIAASSRRYEGQKIWKVHRFLKGFYDLEFCSPELSNFGDCDLVFTAVPHGEAMKYVPQLLDSGIKVVDISADYRLDKETYERVYGKKHEGYVEAVYGLTELHREEIKKANLVANPGCYPTGTILAASPLAKLELIERVVFDCKSGITGAGESPSAFTHYPNLHESIVPYKITEHRHYYEMVQELGRFQSDIKISFTPQVYPGSRGILTNAHVFLRGELTREELYRIYEEFYEDSFFVRIQESVSLSQVRGSNFCDISIHPGEDRVVVVSAIDNLVKGASGQAVQNMNLMMGFDETLGLRTPPLFP | not soluble
13 | MKVGIVLGTKPSNPLEFWVGVEKGKFLQLDDVVVVNSKIDGTNEEIKFYGIVQEVIKYLEGVELVYDAQLVNSGVVPANLAYMARVSVTRIEPEVFIPPTPGDYVFKAEGIDFEKALYYDNMKRKIPAGLTRNGEVVYLNYDFINGREGAHISISGMSGVATKTSYALFLLYSIFQKADDRTKIHGIIFNVKGKDLLWIDKKNKRFTKEHREAFEKLGLPPEPFKNVAFWAPPEQEWSEIPSSGERLEGVFPYKWSMKDFAQEGLLRFLFAEGDEGATSLHYVIDRVSEKLQQLAKESPGDVLLDENGQEINSLGDLLKLLHEVIEDRETKRDPDRYREWFGTAATATAYAFLRRFHHAASHCKHLVHGNKSRHIDWRSHQLNVIDISDLHGIAKMFVVGSILKKIFREKEETGNPYPKIFVVLDELNKYAPKDKWSPIKEILLDIAERGRSLGVILIGAQQTASEIEKRIVANAAVKVTGRLDSSEVLSKEYEFLTGNFRQRAIMLKKGTMILYQPDIPNPVMIKFPLAPWATKKEEVEEEVSAPKEFDQF | soluble
14 | MKVIEVTHPIQSKQYITEDVAMAFGFFDGMHKGHDKVFDILNEIAEARSLKKAVMTFDPHPSVVLNPKRKRTTYLTPLSDKIEKISQHDIDYCIVVNFSSRFANVSVEDFVENYIIKNNVKEVIAGFDFTFGKFGKGNMTVLQEYDAFNTTIVSKQEIENEKISTTSIRQDLINGELQKANDALGYIYSIKGTVVQGEKRGRTIGFPTANIQPSDDYLLPRKGVYAVSIEIGTENKLYRGVANIGVKPTFHDPNKAEVVIEVNIFDFEDNIYGERVTVNWHHFLRPEIKFDGIDPLVKQMNDDKSRAKYLLAVDFGDEVAYNI | not soluble
15 | MKVLILRPAELLSETIRRFREEGFDAYGCPFIKLIYTDFDVPEHDFAIVTSQNAARVLRERGVRLKRVIAIGKKTAELIEAEEVLLPSKFDSETLYEEFAEMLRGKRVVAFRSNAGSEAVKRLSEVADFREIQVYRIEKLQGEEQRREVEKVREGFYDAIVFSSSMIARSLLELCDEKCLEALKNIFVVAIGPPTAKVLAEKGIRAEIPEEYTFDGVIELLKSKKMLEHHHHHH | soluble
